Results published in PMC9588798.

Biological target: Human IgM heavy (μ) chain of the full-length IgM pentamer from myeloma (human) (UniProt P01871)
Experiment: cryo-EM structure; full-length human IgM pentamer without secretory component, 0.25 mg/ml, in PBS; single-particle cryo-EM, 3D variability analysis and focused refinement on subunit 1; models PDB 6KXS, 4JVU and 2AGJ rigidly docked

Substance “Human IgM heavy (μ) chain of the full-length IgM pentamer from myeloma (from UniProt P01871 106-433) (natural protein)” has a stoichiometry N of 10.
